The text below walks through data of publication doi:10.1101/2025.09.16.675330.

One data set has as its system Glu105. Nature of the data set: UV-vis. The settings on record: dark (ground) state, retinal-bound wild type; cited from earlier work.
Data set [1] deals with ChR024 (cation-conducting channelrhodopsin), full-length wild type, residues M1-T280. Nature of the data set: cryo-EM structure.

Regarding “ChR024 (cation-conducting channelrhodopsin) (not stated (uncultured organism; sequence mined from a metagenomic database, identifier IMGM3300027749|Ga0209084_1026585|Ga0209084_10265853))”, in the data set with Glu105, the pKa is reported as 8.25.

Substance “ChR024 (cation-conducting channelrhodopsin), full-length wild type, residues M1-T280 (natural protein)” gave a stoichiometry N in data set [1] of 3.

In general, pKa refers to the pH at which an ionisable group is half protonated. Broadly, the stoichiometry N is the number of molecules, sites or subunits per partner or assembly.
